Measurements taken from article PMC6414199, “Bim escapes displacement by BH3-mimetic anti-cancer drugs by double-bolt locking both Bcl-XL and Bcl-2” (eLife, 2019).
Substitutions are numbered along the chain they refer to. Numbers in names are those of the source.

Tests used:
[1] = biological target: Bcl-XL single-cysteine mutant 152C, Alexa647-labelled, Q07817-1; test: FRET with purified proteins; conditions: chain shown with the change, highest ABT-263 point, x position est. about 3000 nM, read off a plot
[2] = biological target: mCerulean3-Bcl-XL (human), Q07817; test: FRET or BRET; FLIM-FRET in live MCF-7 cells: mCer3-Bcl-XL or mCer3-Bcl-2 stably expressed (donor), Venus-BH3 protein transiently expressed (acceptor); binding curves of FLIM-FRET efficiency against the Venus:mCer3 intensity ratio, 25 C; untreated, DMSO, 20 uM ABT-263 (18-24 h) or 1.25-20 uM A-1155463, A-1331852, ABT-263; R values interpolated at ratio 0.5 (Bcl-XL) or 0.25 (Bcl-2), ^VBad4E signal subtracted; conditions: remark: other sources report otherwise
[3] = biological target: mCerulean3-Bcl-2 (human), P10415; test: as above; conditions: remark: other sources report otherwise
[4] = in solution, without liposomes, parent: est. 68
[5] = with liposomes, parent: est. 99

Sequence of Bcl-XL single-cysteine mutant 152C, Alexa647-labelled, Q07817-1 (Q07817 whole entry, stated change not applied): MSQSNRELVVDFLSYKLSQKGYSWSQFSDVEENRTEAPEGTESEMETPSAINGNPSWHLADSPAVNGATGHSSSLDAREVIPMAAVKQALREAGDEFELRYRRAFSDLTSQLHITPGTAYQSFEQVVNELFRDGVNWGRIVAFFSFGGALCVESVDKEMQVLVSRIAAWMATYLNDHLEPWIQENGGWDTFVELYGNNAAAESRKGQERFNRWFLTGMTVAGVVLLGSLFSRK
Sequence of mCerulean3-Bcl-XL (human), Q07817 (Q07817 whole entry): as the sequence (Q07817 whole entry, stated change not applied) above
Sequence of mCerulean3-Bcl-2 (human), P10415 (P10415 whole entry): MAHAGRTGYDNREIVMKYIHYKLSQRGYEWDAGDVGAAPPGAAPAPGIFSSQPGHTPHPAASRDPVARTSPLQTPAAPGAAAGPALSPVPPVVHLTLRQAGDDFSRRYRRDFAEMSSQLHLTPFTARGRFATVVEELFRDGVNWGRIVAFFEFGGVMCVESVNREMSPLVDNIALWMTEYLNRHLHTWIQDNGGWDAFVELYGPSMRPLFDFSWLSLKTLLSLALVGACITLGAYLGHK

B1: BimL single-cysteine mutant 41C, Alexa568-labelled I188E (protein)
chain: MAKQPSDVSSECDREGGQLQPAERPPQLRPGAPTSLQTEPCDRSPAPMSCDKSTQTPSPPCQAFNHYLSAMASIRQSQEEPEDLRPEIRIAQELRRIGDEFNETYTRRVFANDYREAEDHPQMVILQLLRFEFRLVWRRH
response (% BH3 protein bound) [1, 4]: 18
response (% BH3 protein bound) [1, 5]: 22

B2: BimL single-cysteine mutant 41C, Alexa568-labelled I181E (protein)
chain: B1 chain with I125E, E132I
response (% BH3 protein bound) [1, 4]: 14
response (% BH3 protein bound) [1, 5]: 24

B3: Venus-Bad, Q92934 1-168 (natural protein)
chain: MFQIPEFEPSEQEDSSSAERGLGPSPAGDGPSGSGKHHRQAPGLLWDASHQQEQPTSSSHHGGAGAVEIRSRHSSYPAGTEDDEGMGEEPSPFRGRSRSAPPNLWAAQRYGRELRRMSDEFVDSFKKGLPRPKSAGTATQMRQSSSWTRVFQSWWDRNLGRGSSAPSQ
IC50 of A-1155463 for disrupting the pair [2]: < 1.25 µM
IC50 of A-1331852 for disrupting the pair [2]: < 1.25 µM
IC50 of ABT-263 for disrupting the pair [2]: > 10 µM
R (ABT-263), % of FRET signal left with 20 uM ABT-263 [2]: 46.4%
R with A-1155463, % of FRET signal left [2]: 45%
R with A-1331852, % of FRET signal left [2]: 20%
R (ABT-263), % of FRET signal left with 20 uM ABT-263 [3]: 18.6%
